These results are taken from PMC5356278, “Identification of residues important for the activity of aldehyde-deformylating oxygenase through investigation into the structure-activity relationship” (BMC Biotechnology, 2017).

Substrate in series [1]: CCCCCCC=O
In words: purified protein. The following applies: NADH 750 uM, PMS 75 uM, catalase 1 mg/ml, ferrous ammonium sulfate 80 uM, 100 mM HEPES pH 7.2, 100 mM KCl. The series is classed as biochemical, Synechococcus elongatus.

Substrate in series [2]: CCCCCCC=O
The series is described as follows: purified protein. Format: biochemical, Synechocystis sp. PCC 6803. Particulars: NADH 750 uM, PMS 75 uM, catalase 1 mg/ml, ferrous ammonium sulfate 80 uM, 100 mM HEPES pH 7.2, 100 mM KCl.

Substitutions are numbered along the chain they refer to. Names and notes keep the numbering of the source.

For orientation: Km means the concentration of substrate that gives half-maximal velocity. Usually kcat stands for the maximal rate divided by the concentration of active sites. The term kcat/Km denotes the second-order rate constant that governs catalysis at low substrate concentration.

B1: cADO-1593 (1593) (Synechococcus elongatus PCC 7942 = FACHB-805; L146T) (protein)
chain: MPQLEASLELDFQSESYKDAYSRINAIVIEGEQEAFDNYNRLAEMLPDQRDELHKLAKMEQRHMKGFMACGKNLSVTPDMGFAQKFFERLHENFKAAAAEGKVVTCLLIQSLIIECFAIAAYNIYIPVADAFARKITEGVVRDEYTHRNFGEEWLKANFDASKAELEEANRQNLPLVWLMLNEVADDARELGMERESLVEDFMIAYGEALENIGFTTREIMRMSAYGLAAV
notes: codon-optimised synthetic gene, E. coli BL21(DE3), nickel column; apo enzyme reconstituted with stoichiometric ferrous iron (diferrous form)
Consider B1, for which, in the series “purified protein [1]”, the Michaelis constant (Km) is 340 ± 80 µM, the turnover number (kcat) worked out at 0.0157 ± 0.00133 s⁻¹ and the kcat/Km turned out to be 46 ± 5 M⁻¹ s⁻¹.

B2: cADO-1593 (1593) (Synechococcus elongatus PCC 7942 = FACHB-805; F150Y/Q49H) (protein)
chain: B1 chain with Q49H, T146L, F150Y
notes: as for B1
For the protein B2, in the series “purified protein [1]”, the Km was 330 ± 50 µM, the kcat turned out to be 0.0145 ± 0.000667 s⁻¹ and the kcat/Km amounted to 44 ± 3.33 M⁻¹ s⁻¹.

B3: cADO-1593 (1593) (Synechococcus elongatus PCC 7942 = FACHB-805; F150Y/N123H/Q49H) (protein)
chain: B1 chain with Q49H, N123H, T146L, F150Y
notes: as for B1
Consider B3, for which, in “purified protein [1]”, the Michaelis-Menten constant (Km) turned out to be 350 ± 20 µM, the kcat was found to be 0.0173 ± 0.000333 s⁻¹ and the catalytic efficiency (kcat/Km) was 49.5 ± 5 M⁻¹ s⁻¹.

B4: cADO-1593 (1593) (Synechococcus elongatus PCC 7942 = FACHB-805; W178R) (protein)
chain: B1 chain with T146L, W178R
notes: as for B1
B4: in the series “purified protein [1]”, the Km was 340 ± 80 µM, the turnover number (kcat) came to 0.0302 ± 0.0025 s⁻¹ and the kcat/Km was found to be 88.7 ± 6.67 M⁻¹ s⁻¹.

B5: cADO-1593 (1593) (Synechococcus elongatus PCC 7942 = FACHB-805; F150Y) (protein)
chain: B1 chain with T146L, F150Y
notes: as for B1
Regarding B5, in “purified protein [1]”, the Km stood at 200 ± 40 µM, the kcat was found to be 0.0125 ± 0.000667 s⁻¹ and the kcat/Km amounted to 62.5 ± 6.67 M⁻¹ s⁻¹.

B6: cADO-sll0208 (sll0208) (Synechocystis sp. PCC 6803 substr. Kazusa; L148R) (protein)
chain: MPELAVRTEFDYSSEIYKDAYSRINAIVIEGEQEAYSNYLQMAELLPEDKEELTRLAKMENRHKKGFQACGNNLQVNPDMPYAQEFFAGLHGNFQHAFSEGKVVTCLLIQALIIEAFAIAAYNIYIPVADDFARKITEGVVKDEYTHRNYGEEWLKANFATAKEELEQANKENLPLVWKMLNQVQGDAKVLGMEKEALVEDFMISYGEALSNIGFSTREIMRMSSYGLAGV
notes: full gene in pET-28a(+) (NdeI/XhoI), E. coli BL21(DE3), nickel column; apo enzyme reconstituted with stoichiometric ferrous iron (diferrous form)
For B6, in the series “purified protein [2]”, the Km came to 320 ± 80 µM, the kcat is 0.0152 ± 0.00133 s⁻¹ and the catalytic efficiency (kcat/Km) came to 47.3 ± 5 M⁻¹ s⁻¹.

B7: cADO-sll0208 (sll0208) (Synechocystis sp. PCC 6803 substr. Kazusa) (protein)
chain: B6 chain with R148L
notes: as for B6
For the protein B7, in “purified protein [2]”, the Km was 350 ± 70 µM, the turnover number (kcat) was determined as 0.00983 ± 0.000667 s⁻¹ and the kcat/Km stood at 28.2 ± 3.33 M⁻¹ s⁻¹.

B8: cADO-sll0208 (sll0208) (Synechocystis sp. PCC 6803 substr. Kazusa; D49H/N123H) (protein)
chain: B6 chain with D49H, N123H, R148L
notes: as for B6
For the protein B8, in “purified protein [2]”, the Km was 380 ± 80 µM, the turnover number (kcat) is 0.0138 ± 0.00133 s⁻¹ and the kcat/Km is 36.3 ± 3.33 M⁻¹ s⁻¹.
